Test results published in patent US20240218339.

Experiments:
[1] = tested on: T1, MG29-1 (uncultivated microorganism (metagenomic)); assay: cell_activity
T1 sequence: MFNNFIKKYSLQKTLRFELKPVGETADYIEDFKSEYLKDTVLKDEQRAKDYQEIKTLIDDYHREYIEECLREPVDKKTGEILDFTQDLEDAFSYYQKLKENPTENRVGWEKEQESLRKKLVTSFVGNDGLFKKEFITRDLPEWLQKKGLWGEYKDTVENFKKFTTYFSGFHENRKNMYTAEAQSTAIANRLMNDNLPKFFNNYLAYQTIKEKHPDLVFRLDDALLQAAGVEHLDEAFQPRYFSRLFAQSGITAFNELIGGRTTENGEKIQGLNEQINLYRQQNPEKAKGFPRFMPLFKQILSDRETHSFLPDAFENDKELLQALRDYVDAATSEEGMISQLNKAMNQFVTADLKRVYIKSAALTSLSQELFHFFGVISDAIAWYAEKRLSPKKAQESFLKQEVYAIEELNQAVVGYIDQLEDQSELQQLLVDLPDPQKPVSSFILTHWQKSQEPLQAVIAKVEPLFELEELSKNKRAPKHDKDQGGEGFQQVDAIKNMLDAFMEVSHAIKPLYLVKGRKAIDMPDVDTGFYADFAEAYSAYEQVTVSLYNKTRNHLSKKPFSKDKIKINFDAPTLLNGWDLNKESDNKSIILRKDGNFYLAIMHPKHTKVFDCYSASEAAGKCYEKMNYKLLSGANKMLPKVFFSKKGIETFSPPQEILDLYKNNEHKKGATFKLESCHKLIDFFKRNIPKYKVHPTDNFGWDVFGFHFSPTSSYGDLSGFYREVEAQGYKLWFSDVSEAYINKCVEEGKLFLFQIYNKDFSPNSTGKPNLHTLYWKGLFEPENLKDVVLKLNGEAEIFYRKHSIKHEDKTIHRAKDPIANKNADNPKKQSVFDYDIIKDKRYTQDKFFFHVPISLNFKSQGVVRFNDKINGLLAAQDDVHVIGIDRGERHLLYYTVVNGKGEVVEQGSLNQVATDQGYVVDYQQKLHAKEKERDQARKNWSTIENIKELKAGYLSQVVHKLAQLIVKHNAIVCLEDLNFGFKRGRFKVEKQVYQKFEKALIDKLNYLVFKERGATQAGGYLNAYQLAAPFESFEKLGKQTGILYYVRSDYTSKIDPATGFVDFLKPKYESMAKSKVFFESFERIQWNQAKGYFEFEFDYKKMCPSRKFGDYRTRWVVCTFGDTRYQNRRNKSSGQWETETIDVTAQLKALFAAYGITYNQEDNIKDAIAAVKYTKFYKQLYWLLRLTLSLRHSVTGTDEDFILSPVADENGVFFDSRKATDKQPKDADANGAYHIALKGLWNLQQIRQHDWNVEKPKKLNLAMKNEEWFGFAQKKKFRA

[2] = tested on: T2, MG31-1 (uncultivated microorganism (metagenomic)); assay: cell_activity; conditions: HEK cells
T2 sequence: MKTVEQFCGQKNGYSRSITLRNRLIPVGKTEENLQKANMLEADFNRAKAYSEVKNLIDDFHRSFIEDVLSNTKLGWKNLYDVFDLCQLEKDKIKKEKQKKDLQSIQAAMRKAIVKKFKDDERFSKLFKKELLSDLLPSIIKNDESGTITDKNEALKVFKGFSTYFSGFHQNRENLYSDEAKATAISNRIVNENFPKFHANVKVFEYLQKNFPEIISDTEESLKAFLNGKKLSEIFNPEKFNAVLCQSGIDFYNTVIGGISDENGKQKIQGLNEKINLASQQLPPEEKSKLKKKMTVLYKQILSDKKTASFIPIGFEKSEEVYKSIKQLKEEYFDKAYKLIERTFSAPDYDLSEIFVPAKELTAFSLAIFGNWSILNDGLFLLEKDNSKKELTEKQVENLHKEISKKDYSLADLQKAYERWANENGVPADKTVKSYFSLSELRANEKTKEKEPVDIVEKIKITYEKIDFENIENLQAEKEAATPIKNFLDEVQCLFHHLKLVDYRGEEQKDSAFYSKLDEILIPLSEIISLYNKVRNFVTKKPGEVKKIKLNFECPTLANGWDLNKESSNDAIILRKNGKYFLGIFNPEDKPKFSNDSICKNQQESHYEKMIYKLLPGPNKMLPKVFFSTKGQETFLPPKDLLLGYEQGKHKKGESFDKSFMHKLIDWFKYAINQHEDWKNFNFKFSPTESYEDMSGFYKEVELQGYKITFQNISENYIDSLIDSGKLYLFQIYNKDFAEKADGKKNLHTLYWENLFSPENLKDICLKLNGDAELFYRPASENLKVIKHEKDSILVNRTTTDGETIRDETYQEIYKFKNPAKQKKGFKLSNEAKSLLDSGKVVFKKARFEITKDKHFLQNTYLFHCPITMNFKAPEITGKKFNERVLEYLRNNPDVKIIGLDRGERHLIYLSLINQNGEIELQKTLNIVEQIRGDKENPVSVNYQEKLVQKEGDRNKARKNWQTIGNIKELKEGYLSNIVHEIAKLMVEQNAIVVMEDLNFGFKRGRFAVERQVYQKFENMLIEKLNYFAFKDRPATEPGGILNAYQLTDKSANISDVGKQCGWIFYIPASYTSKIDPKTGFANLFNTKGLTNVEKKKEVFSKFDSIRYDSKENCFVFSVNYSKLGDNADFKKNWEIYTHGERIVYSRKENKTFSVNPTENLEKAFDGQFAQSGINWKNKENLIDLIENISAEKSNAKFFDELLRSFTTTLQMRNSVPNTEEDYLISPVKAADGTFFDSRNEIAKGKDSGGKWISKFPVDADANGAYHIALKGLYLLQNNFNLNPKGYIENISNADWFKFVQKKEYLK

AAUUUCUACUAUUGUAGAUNCCGAUCGUUACAGGAAAAUCUG / GTTCCCGATCGTTACAGGAAAATCTG / CAGATTTTCCTGTAACGATCGGGAAC [mAlb29-1-2 sgRNA ; mouse albumin intron 1 mAlb29-1-2 site]
activity ([1]; PAM GTTC, Hepa1-6 RNP nucleofection, guide backbone inferred): 0 % indel

AAUUUCUACUAUUGUAGAUNUGUGAGGGAGCACCGUUCUCUAGA / TACATAGTTGTGTGAGGGAGCACCGTTCTCTAGA / TCTAGAGAACGGTGCTCCCTCACACAACTATGTA
activity ([1]; PAM KTTG (GTTG), HEK293T plasmid transfection, SD 1.57): 30.4 % NHEJ

AAUUUCUACUAUUGUAGAUNGAAAGGGGGUGGGGGGAGUUUGCU / ATGGGCTTTGGAAAGGGGGTGGGGGGAGTTTGCT / AGCAAACTCCCCCCACCCCCTTTCCAAAGCCCAT [MG29-1 guide VEGFA target8 ; VEGFA target8]
activity ([1]; PAM KTTG (TTTG), HEK293T plasmid transfection, SD 10.17): 30.1 % NHEJ

AAUUUCUACUAUUGUAGAUNUGAAGUCUUACAAGGUUAUCUUAU / TTTGTATTTGTGAAGTCTTACAAGGTTATCTTAT / ATAAGATAACCTTGTAAGACTTCACAAATACAAA [MG31-1 guide albumin target4 ; Albumin target4]
activity ([2]; PAM YTTn (TTTG), SD 2.72): 7.05 % NHEJ

AAUUUCUACUAUUGUAGAUNGGAGGUCAGAAAUAGGGGGUCCAG / TAGCTGTTTGGGAGGTCAGAAATAGGGGGTCCAG / CTGGACCCCCTATTTCTGACCTCCCAAACAGCTA [MG31-1 guide VEGFA target7 ; VEGFA target7]
activity ([2]; PAM YTTn (TTTG), SD 8.67): 17.4 % NHEJ

AAUUUCUACUAUUGUAGAUNCUUGGACCUUGUUUUGCUUACUGU / ACAAATTTTACTTGGACCTTGTTTTGCTTACTGT / ACAGTAAGCAAAACAAGGTCCAAGTAAAATTTGT
activity ([2]; PAM TTTA, SD 0.75): -0.32 % NHEJ

AAUUUCUACUAUUGUAGAUNCGCACUAAGGAAAGUGCAAAGU / TTTGCGCACTAAGGAAAGTGCAAAGT / ACTTTGCACTTTCCTTAGTGCGCAAA [hAlb_g87 sgRNA ; human albumin intron 1 g87 site]
activity ([1]; PAM TTTG, RNP nucleofection HepG2, guide backbone inferred): 97 % indel

AAUUUCUACUAUUGUAGAUNGCCAGAGCCGGGGUGUGCAGACGG / TCCCTCTTTAGCCAGAGCCGGGGTGTGCAGACGG / CCGTCTGCACACCCCGGCTCTGGCTAAAGAGGGA [MG31-1 guide VEGFA target9 ; VEGFA target9]
activity ([2]; PAM YTTn (TTTA), SD 1.92): 6.72 % NHEJ
